From article PMC3909490
pKd: −log10 of the molar value.

Molecular target: FITC-casein (UniProt P02662)
Test: fluorescence polarisation

Chain of UniProt P02662 (P02662 16-214): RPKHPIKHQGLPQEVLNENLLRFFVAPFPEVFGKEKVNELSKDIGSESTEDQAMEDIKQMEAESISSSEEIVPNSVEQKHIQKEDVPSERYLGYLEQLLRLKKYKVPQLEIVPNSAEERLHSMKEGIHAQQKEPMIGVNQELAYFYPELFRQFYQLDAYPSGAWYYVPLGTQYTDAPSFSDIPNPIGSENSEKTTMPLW

Row | Substance | pKd
1 | Hsp104^A503V (from UniProt P31539 1-908) (natural protein) | 7.10
2 | Hsp104^WT (from UniProt P31539 1-908) (natural protein) | 7.19
